Where no end group is shown, it is not given here. [ ]: non-standard residue; d: D form. pS = N[C@@H](COP(=O)(O)O)C(=O)O
T1: MBP-TTP lacking amino acids 179–192 (TTP-MUT1) (human, UniProt P26651 1-326, lacking amino acids 179–192)
T1 sequence (looked up): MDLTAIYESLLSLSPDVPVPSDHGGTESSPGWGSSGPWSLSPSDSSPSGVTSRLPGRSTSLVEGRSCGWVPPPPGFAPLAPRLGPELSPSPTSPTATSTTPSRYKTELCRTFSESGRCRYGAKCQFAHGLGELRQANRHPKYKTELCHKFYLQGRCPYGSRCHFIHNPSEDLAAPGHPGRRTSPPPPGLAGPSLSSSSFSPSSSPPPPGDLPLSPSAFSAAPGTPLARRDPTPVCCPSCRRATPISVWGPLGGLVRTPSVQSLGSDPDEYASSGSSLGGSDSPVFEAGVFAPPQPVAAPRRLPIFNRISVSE

B1: MBP-fused full-length human Tristetraprolin (TTP) (natural protein, UniProt P26651 1-326, looked up)
chain: MDLTAIYESLLSLSPDVPVPSDHGGTESSPGWGSSGPWSLSPSDSSPSGVTSRLPGRSTSLVEGRSCGWVPPPPGFAPLAPRLGPELSPSPTSPTATSTTPSRYKTELCRTFSESGRCRYGAKCQFAHGLGELRQANRHPKYKTELCHKFYLQGRCPYGSRCHFIHNPSEDLAAPGHPPVLRQSISFSGLPSGRRTSPPPPGLAGPSLSSSSFSPSSSPPPPGDLPLSPSAFSAAPGTPLARRDPTPVCCPSCRRATPISVWGPLGGLVRTPSVQSLGSDPDEYASSGSSLGGSDSPVFEAGVFAPPQPVAAPRRLPIFNRISVSE
B2: GST-tagged CNOT1(800–1015) (domain or fragment, human, UniProt A5YKK6-2 800-1015, looked up)
chain: NNDPFVQRKLGTSGLNQPTFQQTDLSQVWPEANQHFSKEIDDEANSYFQRIYNHPPHPTMSVDEVLEMLQRFKDSTIKREREVFNCMLRNLFEEYRFFPQYPDKELHITACLFGGIIEKGLVTYMALGLALRYVLEALRKPFGSKMYYFGIAALDRFKNRLKDYPQYCQHLASISHFMQFPHHLQEYIEYGQQSRDPPVKMQGSITTPGSIALAQA
B3: MBP-tagged TTP-CTD with Asn320 mutated to alanine (domain or fragment, human, UniProt P26651 174-326, looked up)
chain: APGHPPVLRQSISFSGLPSGRRTSPPPPGLAGPSLSSSSFSPSSSPPPPGDLPLSPSAFSAAPGTPLARRDPTPVCCPSCRRATPISVWGPLGGLVRTPSVQSLGSDPDEYASSGSSLGGSDSPVFEAGVFAPPQPVAAPRRLPIFARISVSE

Key:
[1] = biological target: GST-fused CNOT1 fragment, residues 727–1266 (human, UniProt A5YKK6-2 727-1266); assay: pull-down
[2] = biological target: B1; assay: pull-down
[3] = biological target: T1, MBP-TTP lacking amino acids 179–192 …; assay: pull-down
[4] = biological target: B2; assay: pull-down
[5] = biological target: CNOT1(800–999), TTP-interacting fragment of CNOT1 (human, UniProt A5YKK6-2 800-999); assay: ITC

Binder: B1
- binding result [1]: binds

Binder: B2
- binding result [2]: binds
- binding result [3]: binds

Binder: B3
- binding result [4]: binds

Binder: APRRLPIANRISVSE [TTP peptide 312–326, Phe319Ala mutant]
- Kd [5]: ~7 mM

Binder: APRRLPIFNRI[pS]VSE [TTP-CIM peptide 312–326 containing phospho-Ser323]
- Kd [5]: ~0.625 mM

Source: publication PMC4811204 (Nature structural & molecular biology, 2013)
